According to PMC13627713:

Molecular target: Smc5/6 hexamer (wild type) (Saccharomyces cerevisiae W303, UniProt Q08204;Q12749;Q07913;P38632;Q05541;P43124 1-1093;1-1114;1-336;1-267;1-303;1-402)
Assay: EMSA

B1: DB20 20-bp DNA (dsDNA)
DNA 1: TATTTACTTTATGTTCATTT
DNA 2: AAATGAACATAAAGTAAATA
binding result: binds
